Measured values: patent US8735553 (BEIGENE SWITZERLAND, dated 2014)
Substitutions are numbered along the chain they refer to.

B1: hu326-1 (antibody, IgG2, V domains shown, not shown: a dimerising Fc or GST)
VH: QVQLVQSGSELKKPGASVKVSCKASGYTFTNYGMNWVRQAPGQGLEWMGWINNNNGEPTYAQGFRGRFVFSLDTSASTAYLQISSLKTEDTAVYFCARDVMDYWGQGTTVTVSS
VL: DIVLTQSPASLAVSPGQRATITCRASESVDNYGYSFMHWYQQKPGQPPKLLIYRASNLESGVPARFSGSGSRTDFTLTINPVEANDTANYYCQQSKEYPTFGGGTKVEIKR
notes: domain: Ig kappa C-region; Initial humanized version, IgG2 / kappa
B2: ch326 (antibody, human IgG2, V domains shown, not shown: a dimerising Fc or GST)
VH: QIQLVQSGPELKKPGETVKISCKASGYTFTNYGMNWVKQAPGKGLKWMGWINNNNGEPTYAEEFKGRFAFSLETSASTAYLQINNLKNEDTATYFCARDVMDYWGQGTSVTVSS
VL: B1 VL with P15L, T22S, K49Q, V62I, D74G, N85D, T87V, N89T, V107L, I109V
notes: domain: Ig kappa C-region; Murine VH and Vκ of mu326 on human IgG2 / kappa
B3: Fab hu317-1_Vh / hu317-1_Vκ (Fab, V domains shown)
VH: QVQLQESGPGLVKPSETLSLTCTVSGFSLTSYGVHWIRQPPGKGLEWLGVIWAGGSTNYNPSLKSRLTISKDNSKSQVSLKMSSVTAADTAVYYCARAYGNYWYIDVWGQGTTVTVSS
VL: DIVMTQSPDSLAVSLGERATINCKASQSVSNDVAWYQQKPGQPPKLLINYAFHRFTGVPDRFSGSGYGTDFTLTISSLQAEDVAVYYCHQAYSSPYTFGGGTKLEIK
B4: Fab hu317-3A / hu317-1_Vκ (Fab, V domains shown)
VH: B3 VH with L48I, L67V, K71V, N73T, S76N, V78F, M82L
VL: B3 VL
B5: Fab hu317-2_M82L / hu317-1_Vκ (Fab, V domains shown)
VH: B3 VH with M82L
VL: B3 VL
B6: Fab hu317-2_L67V / hu317-1_Vκ (Fab, V domains shown)
VH: B3 VH with L67V
VL: B3 VL
B7: Fab hu317-2_L48I / hu317-1_Vκ (Fab, V domains shown)
VH: B3 VH with L48I
VL: B3 VL
B8: Fab hu317-2_S76N / hu317-1_Vκ (Fab, V domains shown)
VH: B3 VH with S76N
VL: B3 VL
B9: Fab hu317-2_V78F / hu317-1_Vκ (Fab, V domains shown)
VH: B3 VH with V78F
VL: B3 VL
B10: Fab hu317-2_N73T / hu317-1_Vκ (Fab, V domains shown)
VH: B3 VH with N73T
VL: B3 VL
B11: Fab hu317-2_K71V / hu317-1_Vκ (Fab, V domains shown)
VH: B3 VH with K71V
VL: B3 VL
B12: Fab hu317-1_Vh / HU317-2_G100Q (Fab, V domains shown)
VH: B3 VH
VL: B3 VL with G100Q
B13: hu326-2 E46K (antibody, V domains shown)
VH: B1 VH with E46K
VL: DIVLTQSPASLAVSPGQRATITCRASESVDNYGYSFMHWYQQKPGQPPKLLIYRASNLESGVPARFSGSGSRTDFTLTINPVEANDTANYYCQQSKEYPTFGGGTKVEIK
notes: mAb; constant regions not restated (hu326-1 is IgG2 / kappa); Back mutation to murine
B14: hu326-2 A16E (antibody, V domains shown)
VH: B1 VH with A16E
VL: B13 VL
notes: as for B13
B15: hu326-2 S9P (antibody, V domains shown)
VH: B1 VH with S9P
VL: B13 VL
notes: as for B13
B16: hu326-2 F95Y (antibody, V domains shown)
VH: B1 VH with F95Y
VL: B13 VL
notes: mAb; constant regions not restated (hu326-1 is IgG2 / kappa); Forward mutation to human
B17: hu326-2 G63D (antibody, V domains shown)
VH: B1 VH with G63D
VL: B13 VL
notes: as for B13
B18: hu326-2 S85N (antibody, V domains shown)
VH: B1 VH with S85N
VL: B13 VL
notes: as for B13
B19: hu326-2 S84N (antibody, V domains shown)
VH: B1 VH with S84N
VL: B13 VL
notes: as for B13
B20: hu326-2 A76V (antibody, V domains shown)
VH: B1 VH with A76V
VL: B13 VL
notes: as for B16
B21: hu326-2 T88N (antibody, V domains shown)
VH: B1 VH with T88N
VL: B13 VL
notes: as for B13
B22: hu326-3G1 (antibody, V domains shown)
VH: B1 VH with S9P, E46K, G63D, F95Y, T109L
VL: B13 VL
notes: Humanized mAb

molecular target: T1, human PD-1 expressed on cells (human, UniProt Q15116 25-288); assay: cell-based or functional assay
T1 sequence (Q15116 25-288): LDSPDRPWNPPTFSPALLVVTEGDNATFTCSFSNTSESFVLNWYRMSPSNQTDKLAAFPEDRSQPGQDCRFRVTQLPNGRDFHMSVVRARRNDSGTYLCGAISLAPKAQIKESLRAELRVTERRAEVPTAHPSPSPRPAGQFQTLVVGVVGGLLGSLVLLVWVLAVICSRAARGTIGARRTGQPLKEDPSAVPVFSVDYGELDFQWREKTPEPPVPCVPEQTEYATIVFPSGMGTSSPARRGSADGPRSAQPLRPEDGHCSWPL

Binder	Assay-1 IL-2 release, EC50 (HuT78/PD-1 + HEK293/OS8/PD-L1) [µg/mL]	Assay-1 IL-2 release, Top line (HuT78/PD-1 + HEK293/OS8/PD-L1) [pg/mL]
B1	0.112	1140
B2	0.074	1060

molecular target: P3Z chimeric PD-1 receptor (human); assay: cell-based or functional assay
Sequence (chain, as listed by the source mutant limits assumed): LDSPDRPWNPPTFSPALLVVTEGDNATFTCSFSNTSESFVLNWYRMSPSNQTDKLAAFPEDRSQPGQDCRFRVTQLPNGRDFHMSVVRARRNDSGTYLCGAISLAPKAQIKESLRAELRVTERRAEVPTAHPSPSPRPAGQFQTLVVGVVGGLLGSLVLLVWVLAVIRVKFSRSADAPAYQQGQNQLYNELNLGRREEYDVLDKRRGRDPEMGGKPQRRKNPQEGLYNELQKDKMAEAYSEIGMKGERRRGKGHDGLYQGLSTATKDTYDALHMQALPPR

Binder	Assay-2 IL-2 release, IC50 (HuT78/P3Z + HEK293/PD-L1) [µg/mL]	Assay-2 IL-2 release, Max inhibition (HuT78/P3Z + HEK293/PD-L1) [%]
B1	0.1	84.4
B2	0.12	81

molecular target: P3Z chimeric PD-1 receptor (human); assay: cell-based or functional assay; remark: another data set of the same source

Binder	IL-2 release in HuT78/P3Z, EC50 [µg/mL]	IL-2 release in HuT78/P3Z, Max inhibition [%]
B3	0.3	98.8
B4	0.35	79.7
B5	0.27	98.5
B6	0.3	98.6
B7	0.37	98.5
B8	0.28	98.6
B9	0.38	98
B10	0.31	98.3
B11	0.48	96.5
B12	0.27	98.9

molecular target: T1, human PD-1 expressed on cells; assay: cell-based or functional assay; remark: another data set of the same source

Binder	IL-2 release in HuT78/PD-1, EC50 [µg/mL]	IL-2 release in HuT78/PD-1, Top line [pg/mL]
B13	0.259	1240
B1	0.213	987
B14	0.126	1050
B15	0.136	1020
B16	0.135	1030
B17	0.12	1070
B18	0.104	932
B19	0.126	1020
B20	0.112	1000
B2	0.135	993

molecular target: P3Z chimeric PD-1 receptor (human); assay: cell-based or functional assay; remark: another data set of the same source

Binder	IL-2 release in HuT78/P3Z, IC50 [µg/mL]	IL-2 release in HuT78/P3Z, Max inhibition [%]
B13	0.079	95.2
B1	0.087	92.4
B14	0.078	96.3
B15	0.075	96
B16	0.166	95.6
B21	0.102	95.8
B17	0.064	96.4
B18	0.093	95.6
B19	0.06	96.5
B20	0.071	96.7
B2	0.074	93

molecular target: T1, human PD-1 expressed on cells; assay: FACS on PD-1-expressing cells

Binder	EC50 [µg/mL]	Top MFI [MFI]
B1	0.117	129
B2	0.072	163

molecular target: T1, human PD-1 expressed on cells; assay: FACS on PD-1-expressing cells; remark: another data set of the same source

Binder	EC50 [µg/mL]
B13	0.132
B1	0.317
B14	0.155
B15	0.145
B16	0.097
B21	0.098
B17	0.139
B18	0.11
B19	0.131
B20	0.102
B2	0.118

molecular target: T2, wild-type human PD-1 recombinant protein (PD-1/His or PD-1/Fc, not said which) (human, UniProt Q15116 21-168); assay: ELISA on coated recombinant PD-1
T2 construct: also called WT PD-1
T2 sequence (Q15116 21-168 limits assumed): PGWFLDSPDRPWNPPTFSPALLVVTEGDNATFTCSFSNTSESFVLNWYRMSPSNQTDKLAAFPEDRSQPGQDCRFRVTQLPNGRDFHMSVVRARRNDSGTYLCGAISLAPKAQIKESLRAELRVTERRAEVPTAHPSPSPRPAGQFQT

Binder	EC50 [µg/mL]
B22	0.088
